Measured values as given in patent publication US20160038588A1, “Myostatin Antagonism in Human Subjects” (AMGEN INC., priority 2013, published 2016).

Biological target: T1, myostatin (Homo sapiens, UniProt O14793)
T1 construct: To produce mature myostatin, the pooled promyostatin was enzymatically cleaved between the propeptide and mature myostatin C terminal; made in house
T1 sequence (O14793 267-375): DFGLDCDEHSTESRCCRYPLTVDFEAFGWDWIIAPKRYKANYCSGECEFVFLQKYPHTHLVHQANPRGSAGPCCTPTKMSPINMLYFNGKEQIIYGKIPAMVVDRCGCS
Assay: BIAcore affinity analysis on immobilized myostatin
Assay type: binding
Conditions: Biacore assay
Excerpt: The antagonists including the binding agents described herein can be tested for their ability to bind myostatin and inhibit or block myostatin activity. Any number of assays or animal tests may be used to determine the ability of the agent to inhibit or block myostatin activity. Several assays used for characterizing the peptides and peptibodies of the present invention are described in the Examples below. One assay is the C2C12 pMARE-luc assay which makes use of a myostatin-responsive cell line (C2C12 myoblasts) transfected with a luciferase reporter vector containing myostatin/activin response elements (MARE). Exemplary peptibodies are assayed by pre-incubating a series of peptibody dilutions with myostatin, and then exposing the cells to the incubation mixture. The resulting luciferase activity is determined, and a titration curve is generated from the series of peptibody dilutions. The IC50 (the concentration of peptibody to achieve 50% inhibition of myostatin activity as measured by luciferase activity) was then determined. […]
Direct binding assays were used to screen and rank the peptibodies in order of their ability to bind to immobilized myostatin. […] Peptibody binding kinetic parameters including ka (association rate constant), kd (dissociation rate constant) and KD (dissociation equilibrium constant) were determined using the BIA evaluation 3.1 computer program (Biacore, Inc.). […]

Kd: ~7 nM
B1: ActRIIB/Fc: soluble receptor fusion protein actRIIB/Fc (R &D Systems) (protein)
chain: SGRGEAETRECIYYNANWELERTNQSGLERCEGEQDKRLHCYASWRNSSGTIELVKKGCWLDDFNCYDRQECVATEENPQVYFCCCEGNFCNERFTHLPEAGGPEVTYEPPPTAPT
modifications: left off: a dimerising Fc or GST
